# Reference: patent publication WO2019198731A1
# B1: H44 clone (VHH displayed on monoclonal M13 phage) (VHH)
# VHH: QVQLVESGGTLVQAGGSLRLSCAASGRTFSSYAMGWFRQAPGKEREFVAAIRLKTDYSDSVKGRFTISRDNAKNTVYLQMNSLKPEDTAVYYCAAWLRRGYGASWYLTGADPRYWGRGTRVTVSS
# Target: three HER2 antigens (HER2 fragment proteins used for panning)
# Assay: monoclonal phage ELISA on immobilised HER2 antigens
binder,measurement,value
B1,abs. at 450 nm,> 1.5
